From IntAct's records for PubMed 16959570 come the findings set out here.

B1: FK506-binding protein 4 (Saccharomyces cerevisiae), Q06205 (parent)
chain: MSDMLPLATYSLNVEPYSPTPALNFKIPVTIRITMAAIDPEPFDDDKKPSTLRIIKRNPELTRGEYYNQDNNDGLEEDESESEQEADVPKRSVKSKKGKAVEQSESEDSEDENEIDDEFEECVLLTLSPKGQYQQALDITIAPEEDVQFVVTGSYTISLTGNYVKHPFDNSSDSDEDEEDYYSDEESSNGEEEEEEEEEDDEELSSGDDDLDDLVDASDIESRLDELVKKDEKKKNNKKDSKRKHEEDEEESAKPAEKKQTTKKDKKAEKVKDSEESKPKPKTKLLEGGIIIEDRVTGKGPHAKKGTRVGMRYVGKLKNGKVFDKNTKGKPFVFKLGQGEVIKGWDIGVAGMAVGGERRIVIPAPYAYGKQALPGIPANSELTFDVKLVSMK

In the assay the parent is B1. The note with it: with h3_yeast HHT1, P61830.
Consider F323A, for which the “effect of a mutation on the interaction” value is reported as “disrupting interaction”.
